According to the RNAGym collection of RNA variant scans (doi:10.1093/molbev/msab373):

B1: Azoarcus group I ribozyme (parent)
chain: GUGCCUUGCGCCGGGAAACCACGCAAGGGAUGGUGUCAAAUUCGGCGAAACCUAAGCGCCCGCCCGGGCGUAUGGCAACGCCGAGCCAAGCUUCGGCGCCUGCGCCGAUGAAGGUGUAGAGACUAGACGGCACCCACCUAAGGCAAACGCUAUGGUGAAGGCAUAGUCCAGGGAGUGGCGAAAGUCACACAAACCGG

Variants of: B1
Experiment: reverse-splicing fitness (ratio to wild type); higher = more active; in vitro selection; Mg2+ level not given
Method in brief: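 An in vitro group I ribozyme library with randomized positions was T7-transcribed and gel-purified. In triplicate, 10 pmol RNA in EPPS pH 7.5 was reacted with 50 pmoles of a 30-nt RNA substrate for 1 h at 37 °C across several added MgCl2 levels (1–48 mM), then stopped with EDTA. Products were reverse transcribed from a substrate-complementary primer, PCR-amplified and sequenced (HiSeq 4000). Fitness is a variant's read proportion after selection over that before, normalised to wild type.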
A111G A120G C150A C169U U176A gave a reverse-splicing fitness of 0.0272. In the case of A111G A120G C150A C169U U176G, the reverse-splicing fitness is reported as 0.00819. A111G A120G C150A C169U U176C gave a reverse-splicing fitness of 0.0286. In the case of A111G A120G A145C C150U C169G U176A, the reverse-splicing fitness is reported as 0.0412. Variant A111G A120G A145C C150U C169G U176G has a reverse-splicing fitness of 0.00498. A111G A120G A145C C150U C169G U176C gave a reverse-splicing fitness of 0.036. In the case of A111G A120U A145C C150G U176G, the reverse-splicing fitness is reported as 0.0047. Work on A111G A120U A145C C150G U176A yielded a reverse-splicing fitness of 0.0114. In the case of A111G A120U A145C C150G U176C, the reverse-splicing fitness is reported as 0.0153. A111G A120U A145C C169U U176A gave a reverse-splicing fitness of 0.0207. With A111G A120U A145C C169U U176G the reverse-splicing fitness was 0.00329. With A111G A120U A145C C169U U176C the reverse-splicing fitness was 0.0146. For A111G A120U A145C C150A C169U U176A, the reverse-splicing fitness was 0.00311. Variant A111G A120U A145C C150A C169U U176C has a reverse-splicing fitness of 0.00268. With A111G A120U A145C C150A C169U U176G the reverse-splicing fitness was 0.00197. Work on A111G A120U A145C U176C yielded a reverse-splicing fitness of 0.214. For A111G A120U A145C U176A, the reverse-splicing fitness was 0.332. A111G A120U A145C U176G showed a reverse-splicing fitness of 0.131. For A111G A120G A145G C150A C169G, the reverse-splicing fitness was 0.0514. For A111G A120G A145G C150A C169A, the reverse-splicing fitness was 0.0278. Work on A111G A120G A145G C150A C169U yielded a reverse-splicing fitness of 0.0458. A111G A120G A145U C150U C169U U176G gave a reverse-splicing fitness of 0.00675. Work on A111G A120G A145U C150U C169U U176A yielded a reverse-splicing fitness of 0.0647. In the case of A111G A120G A145U C150U C169U U176C, the reverse-splicing fitness is reported as 0.0675. Variant A111G A120G A145G C150A U176A has a reverse-splicing fitness of 0.0225. Variant A111G A120G A145G C150A U176G has a reverse-splicing fitness of 0.00788. In the case of A111G A120G A145G C150A U176C, the reverse-splicing fitness is reported as 0.0374. With A111G A120G A145C C150U U176C the reverse-splicing fitness was 0.038. In the case of A111G A120G A145C C150U U176G, the reverse-splicing fitness is reported as 0.00705. Work on A111G A120G A145C C150U U176A yielded a reverse-splicing fitness of 0.0317. Variant A111G A120G A145U C150A U176G has a reverse-splicing fitness of 0.00541. Variant A111G A120G A145U C150A U176A has a reverse-splicing fitness of 0.0179. For A111G A120G A145U C150A U176C, the reverse-splicing fitness was 0.0234. A111G A120G A145C C169G U176C gave a reverse-splicing fitness of 0.0984. Variant A111G A120G A145C C169G U176G has a reverse-splicing fitness of 0.00658. In the case of A111G A120G A145C C169G U176A, the reverse-splicing fitness is reported as 0.079. With A111G A120U A145G C150U C169U U176C the reverse-splicing fitness was 0.0273. In the case of A111G A120U A145G C150U C169U U176A, the reverse-splicing fitness is reported as 0.0147. A111G A120U A145G C150U C169U U176G showed a reverse-splicing fitness of 0.00334. For A111G A120G C169G U176C, the reverse-splicing fitness was 0.119. A111G A120G C169G U176G gave a reverse-splicing fitness of 0.00692. Work on A111G A120G C169G U176A yielded a reverse-splicing fitness of 0.09. For A111G A120G C150U, the reverse-splicing fitness was 0.156. A111G A120G C150A showed a reverse-splicing fitness of 0.0324. For A111G A120G C150G, the reverse-splicing fitness was 0.0248. Work on A111G A120G A145G C169G U176G yielded a reverse-splicing fitness of 0.00622. For A111G A120G A145G C169G U176C, the reverse-splicing fitness was 0.134. A111G A120G A145G C169G U176A showed a reverse-splicing fitness of 0.0887. Variant A111G A120G C169A U176C has a reverse-splicing fitness of 0.0737. With A111G A120G C169A U176G the reverse-splicing fitness was 0.00449. Work on A111G A120G C169A U176A yielded a reverse-splicing fitness of 0.0455. Variant A111G A120U A145C C150G C169A U176A has a reverse-splicing fitness of 0.00204. With A111G A120U A145C C150G C169A U176C the reverse-splicing fitness was 0.00245. Work on A111G A120U A145C C150G C169A U176G yielded a reverse-splicing fitness of 0.00216. Work on A111G A120U A145G C150G C169G U176G yielded a reverse-splicing fitness of 0.00311. A111G A120U A145G C150G C169G U176A gave a reverse-splicing fitness of 0.00719. A111G A120U A145G C150G C169G U176C showed a reverse-splicing fitness of 0.00396. Variant A111G A120U A145C C150U C169U U176A has a reverse-splicing fitness of 0.00601. A111G A120U A145C C150U C169U U176G showed a reverse-splicing fitness of 0.00212. Work on A111G A120U A145C C150U C169U U176C yielded a reverse-splicing fitness of 0.00282. A111G A120U A145C C169G gave a reverse-splicing fitness of 0.0842. Variant A111G A120U A145C C169U has a reverse-splicing fitness of 0.12. A111G A120U A145C C169A gave a reverse-splicing fitness of 0.00532. A111G A120G A145U C150A C169G U176G showed a reverse-splicing fitness of 0.00424. In the case of A111G A120G A145U C150A C169G U176C, the reverse-splicing fitness is reported as 0.0243. Work on A111G A120G A145U C150A C169G U176A yielded a reverse-splicing fitness of 0.0201. Work on A111G A120G A145C C169U yielded a reverse-splicing fitness of 0.219. Variant A111G A120G A145C C169A has a reverse-splicing fitness of 0.158. Work on A111G A120G A145C C169G yielded a reverse-splicing fitness of 0.3. A111G A120G C150G C169A U176C showed a reverse-splicing fitness of 0.0116. A111G A120G C150G C169A U176A gave a reverse-splicing fitness of 0.00862. Variant A111G A120G C150G C169A U176G has a reverse-splicing fitness of 0.00604. Variant A111G A120G C150A C169A has a reverse-splicing fitness of 0.0242. A111G A120G C150A C169G gave a reverse-splicing fitness of 0.0355. For A111G A120G C150A C169U, the reverse-splicing fitness was 0.0298. For A111G A120G A145G C150G C169A U176A, the reverse-splicing fitness was 0.0122. A111G A120G A145G C150G C169A U176G gave a reverse-splicing fitness of 0.00709. A111G A120G A145G C150G C169A U176C showed a reverse-splicing fitness of 0.0143. With A111G A120G A145U C169A the reverse-splicing fitness was 0.174. With A111G A120G A145U C169G the reverse-splicing fitness was 0.33. A111G A120G A145U C169U gave a reverse-splicing fitness of 0.232. For A111G A120G A145G C150U C169A U176C, the reverse-splicing fitness was 0.0553. A111G A120G A145G C150U C169A U176G showed a reverse-splicing fitness of 0.00612. In the case of A111G A120G A145G C150U C169A U176A, the reverse-splicing fitness is reported as 0.0303.
